Data reported in patent publication US20220347267A1, “METHODS TO IMPROVE PATIENT RESPONSE TO IMMUNE CHECKPOINT INHIBITORS AND FUNCTIONAL TESTS TO PREDICT RESPONSE” (Biomarker Strategies, LLC, priority 2019, published 2022).

What was measured:
Assay in all cases: PD-L1 western blot after modulators (EM and MTAs)
Assay type in all cases: cell-based, human
H1975 cells = settings: NSCLC H1975, 30 minutes, 3 hours, 24 hours
Text: (§1) Cell lines were acquired from ATCC, Sigma, or DSMZ. Human non-small cell lung carcinoma (NSCLC) cell lines H292 (ATCC no. CRL-1848.), H1299 (ATCC no. CRL-5803), H520 (ATCC no. CRL-5811), CALU6 (ATCC no. HTB-56), H1975 (ATCC no. CRL-5908), H460 (ATCC no. HTB-177), H2126 (ATCC no. CCL-256), H1650 (ATCC no. CRL-5883), and H2087 (ATCC no. CRL-5922) were used for this experiment along with head and neck squamous cell carcinoma (HNSCC) cell lines BHY (DSMZ ACC 404), CAL27 (ATCC no. CRL-2095), KYSE410 (Sigma), and A253 (ATCC no. HTB-41), melanoma cell lines A375 (ATCC no. CRL-1619), COL0853 (Sigma), and MM127 (Sigma) pancreatic cancer cell lines BXPC3 (ATCC no. CRL-1687), colorectal cancer cell lines […], HCT116 (ATCC no. CCL-247EMT), and breast cancer cell lines BT549 (ATCC no. HTB-122), BT20 (ATCC no. HTB-19), and T47D (ATCC no. HTB-133). Cells were maintained in manufacturer-recommended conditions at 37° C. inside humidified 5% CO2 incubators. Sub-cultivation and harvesting for all cell lines were performed using Accutase (GIBCO Life Technologies; cat. no. A1110501) at 37° C. for 10 minutes. Cell viability was measured using trypan blue exclusion staining in conjunction with the Countess II Automated Cell Counter (Thermo Fischer Scientific; cat. no. AMQAX1000). Measurements were made in duplicate and the average number of viable cells was recorded prior to experiments.
(§2) Enhancer Molecule and Therapies: IFNγ, (10 ng/ml; Sigma Aldrich, cat.no 11040596001), TNFα (10 ng/ml; BD Biosciences cat. no. 554618), Osimertinib (100 ng/ml; Selleckchem cat.no. S7297), Everolimus (100 ng/ml; Selleckchem cat.no S1120), GSK458 (10 ng/ml; Selleckchem cat. no. S2658), TNFb (50 ng/ml; Sigma Aldrich cat. no.), GSK795 (1,000 ng/ml; Selleckchem cat. no. S7492), IL-12 (50 ng/ml; Sigma Aldrich SRP3073), GM-CSF (50 ng/ml; Sigma Aldrich cat. no. G5035), IL-1a (1 ng/ml; Sigma Aldrich cat. no. 12778-), IL-6 (50 ng/ml; Sigma Aldrich), IL-17 (100 ng/ml; Sigma Aldrich cat. no. SRP3080), TGFb (1 ng/ml; Sigma Aldrich cat. no. T7039), and IL-10 (50 ng/ml; Sigma Aldrich cat. no. SRP3071) were administered to cell lines for various times including 30 minutes, 3 hour, and 24 hour time intervals prior to cell lysis and protein extraction.
(§3) To determine the effects of the aforementioned molecules on the modulation of PD-L1, we selected various NSCLC, HNSCC, breast cancer, melanoma, colorectal cancer, and pancreatic cancer cell lines as examples. Other diseases or cell lines could be used readily as could more complex samples such as cells isolated from xenografts and clinical samples. Cells were plated, for three different time points (30 minutes, 3 hours, and 24 hours), inside 6-well petri dishes with 2 mL of appropriate medium. Plates were incubated for 24 hours in 5% CO2 incubators at 37° C. After 24 hours, each 6-well plate was washed with PBS (Gibco Life Technologies, cat. no. 10010023) followed by fresh media being added along with each cell line's vehicle control or appropriate modulator for each specific time point, and were placed in CO2 incubators until their modulation time point was reached. Other conditions can be readily used, such as processing on automated systems such as SnapPath. At the end of each time point, while keeping plates on ice, cell lysis was conducted by aspirating culture medium from each plate, washing of each plate three times with 5 ml of cold PBS (Gibco Life Technologies, cat. no. 10010023) and culminated with the addition of cold 1× lysis buffer containing (Cell Signaling, cat. no. 9803 S) protease inhibitor cocktail (Cell Signaling, cat. no. 5871S), phosphatase inhibitor cocktail (Cell Signaling, cat. no. 5870S), and PMSF (Fisher Scientific, cat. no. ICN19538101). Plates were then placed on ice for ten minutes, swirling each plate intermittently. Aliquots of protein lysates were prepared and then stored at −80° C. until protein quantification and Western blot analysis was to be conducted. […]

A375 cells = settings: Melanoma A375, 30 minutes, 3 hours, 24 hours
Text: as §1, §2, §3

CAL27 cells = settings: Head and neck CAL27, 30 minutes, 3 hours, 24 hours
Text: as §1, §2, §3

H1299 cells = settings: NSCLC H1299, 30 minutes, 3 hours, 24 hours
Text: as §1, §2, §3

BxPC3 cells = settings: Pancreatic BxPC3, 30 minutes, 3 hours, 24 hours
Text: as §1, §2, §3

H2087 cells = settings: NSCLC H2087, 30 minutes, 3 hours, 24 hours
Text: as §1, §2, §3

BHY cells = settings: Head and neck BHY, 30 minutes, 3 hours, 24 hours
Text: as §1, §2, §3

KYSE410 cells = settings: Head and neck KYSE410, 30 minutes, 3 hours, 24 hours
Text: as §1, §2, §3

A253 cells = settings: Head and neck A253, 30 minutes, 3 hours, 24 hours
Text: as §1, §2, §3

H520 cells = settings: NSCLC H520, 30 minutes, 3 hours, 24 hours
Text: as §1, §2, §3

BT20 cells = settings: Breast BT20, 30 minutes, 3 hours, 24 hours
Text: as §1, §2, §3

Calu6 cells = settings: NSCLC Calu6, 30 minutes, 3 hours, 24 hours
Text: as §1, §2, §3

Measured: PD-L1 Response

B1: IFNγ: human IFNγ, modulator (10 ng/ml; Sigma Aldrich) (protein, UniProt P01579 24-161, looked up)
Interferon gamma: QDPYVKEAENLKKYFNAGHSDVADNGTLFLGILKNWKEESDRKIMQSQIVSFYFKLFKNFKDDQSIQKSVETIKEDMNVKFFNSNKKKRDDFEKLTNYSVTDLNVQRKAIHELIQVMAELSPAAKTGKRKRSQMLFRG
Up: all assays above
